The record followed here is US20230028110A1 (ADAPTATE BIOTHERAPEUTICS, published 2023).

Read-outs that look alike come from different tables or passages of the source.

Assay [1] concerns the target Vδ1 chain of the γδ TCR on human Vδ1 γδ T cells (human). Nature of the assay: cell-based or functional assay.
Assay [2] shares this target. Nature of the assay: cell-based or functional assay. The source holds these as a separate data set.
For assay [3] the target is unchanged. Nature of the assay: cell-based or functional assay. The source holds these as a separate data set.
For assay [4], the target named is T1, L1 (DV1-GV4), soluble human Vδ1/Vγ4 γδ TCR heterodimer in leucine zipper format (human).
T1 construct: Biotinylated in the DELFIA ranking; also called Antigen L1 (TRDV1/TRGV4); human DV1-GV4; not shown: gamma chain: Vγ4 (TRGV4) domain on a TCR constant region, leucine zipper, histidine tag
Nature of the assay: SPR (Reichert 4SPR), antibody on Protein A chip, antigen flown over.

Assay [5] has as its target T1, L1 (DV1-GV4), soluble human Vδ1/Vγ4 γδ …. The assay is described as above. This is another data set of the same source.
Method: (§1) Recombinant human Vδ1 heterodimer or human MSLN was flown over the cell at a top concentration of 100 nM with the following parameters: 180 s association, 480 s dissociation, flowrate 25 μL/min, running buffer PBS+0.05% Tween 20. All experiments were performed at room temperature.
Assay [6] has the same target. The description is as above. The source holds these as a separate data set.
Method: Recombinant human Vδ1 heterodimer or human PD-1 was flown over the cell at a top concentration of 100 nM.
For assay [7] the target is unchanged. Described as above. The source holds these as a separate data set.
Method: Recombinant human Vδ1 heterodimer or human 4-1BB was flown over the cell at a top concentration of 100 nM.
Assay [8] shares this target. Described as above. The source holds these as a separate data set.
Method: (§2) Recombinant human Vδ1 heterodimer or human OX40 was flown over the cell at a top concentration of 100 nM.
The target in assay [9] is T2, Vδ1 chain of the γδ TCR on human Vδ1 γδ T cells (human).
T2 construct: whole, on cells; also called cell surface Vδ1 TCR; Vδ1-positive γδ T cells
Nature of the assay: flow cytometry, anti-human IgG secondary antibody, Vδ1 γδ T-cells. On the technique in general: In flow cytometry, cells or beads pass a laser one at a time.
Method: (§3) Initially CD4 and CD8 T-cells were negatively selected by magnetic sorting from PBMC buffy coats extracted from whole blood. […] After washing, cells were incubated for a further 15 minutes with anti-human IgG secondary antibodies before washing and fixing. The amount of antibody bound to each cell type was determined by flow cytometry.

Assay [10] concerns the target T3, Her2 on Her2+ breast cancer cells (SK-BR-3, BT-474) (human, UniProt P04626 23-1255).
T3 construct: whole, on cells; also called ErbB-2; CD340
Nature of the assay: flow cytometry on SK-BR-3 cells, anti-human IgG secondary antibody.

In assay [11] the target is T4, TIGIT on activated CD4 T-cells.
T4 chain: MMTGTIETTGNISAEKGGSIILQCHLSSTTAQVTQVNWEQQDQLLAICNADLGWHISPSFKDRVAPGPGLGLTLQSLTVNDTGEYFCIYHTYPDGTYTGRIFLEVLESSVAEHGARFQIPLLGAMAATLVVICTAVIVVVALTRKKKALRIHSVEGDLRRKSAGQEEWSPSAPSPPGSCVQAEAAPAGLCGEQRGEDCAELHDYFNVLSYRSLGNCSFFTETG
Nature of the assay: flow cytometry, anti-human IgG secondary antibody, activated CD4 T-cells.

In assay [12] the target is T5, TIGIT on activated CD8 T-cells (human, UniProt Q495A1).
T5 sequence (receptor chain, looked up): T4 chain
Nature of the assay: flow cytometry, anti-human IgG secondary antibody, activated CD8 T-cells.
Method: as §3

A further assay addresses Recombinant human FAPα (human, UniProt Q12884 26-760). Nature of the assay: SPR, Reichert 4SPR; antibody captured on Protein A chip, human FAPα flown over. (In general: SPR reads the build-up and loss of mass on a sensor chip optically.)
In a further assay the target is T6, Recombinant human MSLN (human, UniProt Q13421 296-580, limits assumed).
T6 construct: also called mesothelin
Nature of the assay: SPR, Reichert 4SPR; antibody captured on Protein A chip, human MSLN flown over.

The next assay deals with T7, Recombinant human OX40 (human, UniProt P43489 29-216, limits assumed).
T7 construct: also called CD134
T7 sequence (looked up): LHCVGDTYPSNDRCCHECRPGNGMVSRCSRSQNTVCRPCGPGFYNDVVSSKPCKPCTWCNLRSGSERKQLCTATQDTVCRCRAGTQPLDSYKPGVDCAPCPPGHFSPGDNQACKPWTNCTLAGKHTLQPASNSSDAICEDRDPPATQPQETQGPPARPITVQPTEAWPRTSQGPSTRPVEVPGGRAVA
Nature of the assay: SPR, Reichert 4SPR; antibody captured on Protein A chip, human OX40 flown over.

Assay [13] has as its target T8, FAPα on FAPα+ fibroblasts (human, UniProt Q12884 1-760).
T8 construct: whole, on cells; also called FAPα+ target cells (BJ fibroblasts, human dermal fibroblasts)
Nature of the assay: flow cytometry on BJ fibroblasts, anti-human Fc secondary antibody, % IgG bound cells.
Method: After washing, cells were incubated for a further 15 minutes with anti-human Fc secondary antibodies before washing and fixing. The amount of antibody bound to each cell type was determined by flow cytometry.

Assay [14] deals with T2, Vδ1 chain of the γδ TCR on human Vδ1 γδ …. Nature of the assay: flow cytometry on Vδ1 γδ T-cells, anti-human IgG secondary antibody, % IgG bound cells.
Method: After washing, cells were incubated for a further 15 minutes with anti-human IgG secondary antibodies before washing and fixing. The amount of antibody bound to each cell type was determined by flow cytometry.
The target is the same in assay [15]. Nature of the assay: flow cytometry on Vδ1 γδ T-cells, anti-human IgG secondary antibody, % cells bound IgG.
For assay [16], the target named is T9, 4-1BB on activated CD8 T-cells (human, UniProt Q07011).
T9 construct: also called 4-1BB+ CD8 T-cells
Nature of the assay: flow cytometry on anti-CD3/anti-CD28-activated CD8 T-cells, anti-human IgG secondary antibody, % cells bound IgG.

Assay [17] addresses T10, OX40 on activated CD4 T-cells.
T10 construct: also called OX40+ CD4 T-cells
T10 chain: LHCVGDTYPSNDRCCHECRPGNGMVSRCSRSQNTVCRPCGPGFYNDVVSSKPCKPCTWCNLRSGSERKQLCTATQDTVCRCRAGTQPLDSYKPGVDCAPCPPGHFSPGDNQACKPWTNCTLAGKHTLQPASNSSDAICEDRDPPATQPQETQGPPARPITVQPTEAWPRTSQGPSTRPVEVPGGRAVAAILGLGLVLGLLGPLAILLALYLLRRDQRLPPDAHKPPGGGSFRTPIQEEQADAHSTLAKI
Nature of the assay: flow cytometry on anti-CD3/anti-CD28-activated CD4 T-cells, anti-human IgG secondary antibody, % cells bound IgG.
Method: Initially CD4+ T-cells were negatively selected by magnetic sorting from PBMC buffy coats extracted from whole blood. Following activation by anti-CD3/anti-CD28 antibodies conjugated to Dynabeads (Invitrogen), cell surface expression of OX40 was elevated on CD4 T-cells. […] After washing, cells were incubated for a further 15 minutes with anti-human IgG secondary antibodies before washing and fixing. The amount of antibody bound to each cell type was determined by flow cytometry.

Assay [18] concerns the target PD-1 on activated CD4 and CD8 T-cells. Nature of the assay: flow cytometry on anti-CD3/anti-CD28-activated CD4 and CD8 T-cells, anti-human IgG secondary antibody, % cells bound IgG.

T1 sequence (main, as listed by the source): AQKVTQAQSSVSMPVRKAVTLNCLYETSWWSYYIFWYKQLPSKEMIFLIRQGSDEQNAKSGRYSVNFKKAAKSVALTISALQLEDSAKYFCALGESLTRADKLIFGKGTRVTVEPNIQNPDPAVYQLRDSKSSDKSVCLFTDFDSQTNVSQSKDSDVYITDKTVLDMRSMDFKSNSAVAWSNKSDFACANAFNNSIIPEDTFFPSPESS
T2 sequence (A0A1B0GX56 22-115, stated change not applied): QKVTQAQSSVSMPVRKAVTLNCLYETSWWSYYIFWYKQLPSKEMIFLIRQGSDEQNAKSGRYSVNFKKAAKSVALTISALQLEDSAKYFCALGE
T9 sequence (Q07011 24-255 limits assumed): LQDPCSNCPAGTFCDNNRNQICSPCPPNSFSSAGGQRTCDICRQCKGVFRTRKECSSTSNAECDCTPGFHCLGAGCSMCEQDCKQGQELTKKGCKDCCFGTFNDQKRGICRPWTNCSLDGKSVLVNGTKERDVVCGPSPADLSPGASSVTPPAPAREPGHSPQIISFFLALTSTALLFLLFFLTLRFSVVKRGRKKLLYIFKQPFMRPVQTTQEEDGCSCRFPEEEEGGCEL
T6 sequence (Q13421 other isoform, or with tags, fused parts or gaps limits assumed): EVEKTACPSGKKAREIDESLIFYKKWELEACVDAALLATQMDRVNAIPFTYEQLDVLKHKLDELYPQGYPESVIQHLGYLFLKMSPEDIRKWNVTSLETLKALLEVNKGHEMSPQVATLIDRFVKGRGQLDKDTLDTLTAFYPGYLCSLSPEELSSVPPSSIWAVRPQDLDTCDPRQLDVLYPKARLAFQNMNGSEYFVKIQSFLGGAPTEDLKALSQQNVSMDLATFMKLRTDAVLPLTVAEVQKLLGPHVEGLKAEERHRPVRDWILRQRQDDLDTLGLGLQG
Chain of PD-1 on activated CD4 and CD8 T-cells (chain, as listed by the source limits assumed): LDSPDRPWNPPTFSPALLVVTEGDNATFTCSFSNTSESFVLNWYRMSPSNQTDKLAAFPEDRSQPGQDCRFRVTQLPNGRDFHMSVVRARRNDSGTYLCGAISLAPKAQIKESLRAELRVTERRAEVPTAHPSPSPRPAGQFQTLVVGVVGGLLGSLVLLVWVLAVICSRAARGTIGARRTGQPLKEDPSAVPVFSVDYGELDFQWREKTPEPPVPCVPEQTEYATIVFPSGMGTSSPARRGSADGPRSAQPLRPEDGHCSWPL
Method for Recombinant human FAPα: Recombinant human Vδ1 heterodimer or human FAPα was flown over the cell at a concentration of 100 nM with the following parameters: 180 s association, 480 s dissociation, flowrate 25 μL/min, running buffer PBS+0.05% Tween 20. All experiments were performed at room temperature.
Method for Recombinant human MSLN: as §1
Method for Recombinant human OX40: as §2

B1: ADT1-4-2 (antibody, IgG1, V domains shown)
VH: EVQLQQSGPGLVKPSQTLSLTCAISGDSVSSKSAAWNWIRQSPSRGLEWLGRTYYRSKWSTDYAASVKSRITINPDTSKNQLSLQLNSVTPEDTAVYYCARTWVGYVDRWGQGTLVTVSS
VL: DIQMTQSPPALSASVGDRVTITCRASQDINDWLAWYQHKPGKAPKLLIYDASSLESGVPLRFSGSGSGTEFTLTISSLQPDDFATYYCQQKYSAPQVTFGQGTRLEIK
notes: IgG1
For the molecule B1, in assay [1], the “IC50 (read off the curve), Vδ1 TCR downregulation, γδ T-cells with FAPα+ fibroblasts” value is about 2 nM. For the same molecule, in assay [2], the “IC50 (read off the curve), Vδ1 TCR downregulation, γδ T-cells alone” value is about 0.1 nM. Further, the “IC50 (read off the curve), Vδ1 TCR downregulation, γδ T-cells with activated OX40+ CD4 T-cells” value in assay [3] was about 0.1 nM. Further, the equilibrium dissociation constant (Kd) in assay [4] was found to be 0.14 nM; in assay [5], 0.01 nM; in [6] it was 0.29 nM; in assay [7], 1.25 nM; in assay [8] it was 1.25 nM. In addition, the “EC50 (read off the curve)” value in assay [9] was about 0.2 nM; in [14], about 0.3 nM; in assay [15], about 0.2 nM. The binding result in assay [10] was “no binding (tested: about 300 nM)”; in assay [11], “no binding (tested: 200 nM)”; in assay [12] it was “no binding (tested: 200 nM)”; with Recombinant human FAPα, “no binding”; in the assay with Recombinant human MSLN, “no binding”; with Recombinant human OX40 it was “no binding”. Besides, the binding result in [13] is “no binding (tested: about 70 nM)”; in assay [16], “no binding (tested: 200 nM)”; in [17] it was “no binding (tested: 200 nM)”; in [18] it was “no binding (tested: 200 nM)”.

As usually defined, the Kd is the constant that tells how readily two partners part at equilibrium. Read a low Kd as higher affinity. The EC50 (read off the curve) is the concentration at which the effect is half-maximal. Low values mean an effect from little substance, high ones a need for much substance.
